The record followed here is the supplement of paper PMC9112550, “Optimization of the antimicrobial peptide Bac7 by deep mutational scanning” (BMC Biology, 2022).

For the series, the system named is Escherichia coli TOP10. The experiment in a line: shrunken log2 fold change of peptide-encoding DNA abundance (4.5 h post-induction vs induction); higher = less antimicrobial activity (less host growth inhibition). As to conditions: time post-induction: 4.5 h; library: site-saturation at positions 5, 18, 19, 20.
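Also: peptides expressed intracellularly from a pBAD plasmid library in pooled LB shake-flask culture, induced with 0.3% L-arabinose, DNA abundance read by NGS, three biological replicates, DESeq2 with apeglm shrinkage.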

As for RRIRPRPPRLPRPRPRPAVQPRP, the “shrunken log2 fold change” value amounted to 0.168.

Take RRIRWRPPRLPRPRPRPMFNPRP: the “shrunken log2 fold change” value was -0.156.

As for RRIRFRPPRLPRPRPRPVFMPRP, the “shrunken log2 fold change” value is -0.0805.

Consider RRIRWRPPRLPRPRPRPCNPPRP, for which the “shrunken log2 fold change” value is -0.00159.

Turning to RRIRTRPPRLPRPRPRPIKWPRP, the “shrunken log2 fold change” value was found to be 0.0186.

With RRIRTRPPRLPRPRPRPYCVPRP, the “shrunken log2 fold change” value was -0.142.

In the case of RRIRSRPPRLPRPRPRPDMNPRP, the “shrunken log2 fold change” value stood at 0.0168.

As to RRIRCRPPRLPRPRPRPMREPRP, the “shrunken log2 fold change” value amounted to 0.907.

As to RRIRRRPPRLPRPRPRPWLFPRP, the “shrunken log2 fold change” value came out at 0.383.

On to RRIRTRPPRLPRPRPRPDGAPRP, for which the “shrunken log2 fold change” value is 0.132.

As to RRIRFRPPRLPRPRPRPMHPPRP, the “shrunken log2 fold change” value was -0.082.

Regarding RRIRIRPPRLPRPRPRPNGMPRP, the “shrunken log2 fold change” value was -0.0985.

For the sequence RRIRWRPPRLPRPRPRPKPQPRP, the “shrunken log2 fold change” value was determined as 0.391.

As for RRIRERPPRLPRPRPRPSTSPRP, the “shrunken log2 fold change” value is -0.145.

For the sequence RRIRWRPPRLPRPRPRPNHYPRP, the “shrunken log2 fold change” value is -0.605.

With RRIRFRPPRLPRPRPRPIKTPRP, the “shrunken log2 fold change” value was -0.0134.

As for RRIRKRPPRLPRPRPRPLYEPRP, the “shrunken log2 fold change” value was 0.0468.

Regarding RRIRLRPPRLPRPRPRPPVIPRP, the “shrunken log2 fold change” value is -0.0477.

In the case of RRIRVRPPRLPRPRPRPYDKPRP, the “shrunken log2 fold change” value was -1.05.

With RRIRHRPPRLPRPRPRPKNMPRP, the “shrunken log2 fold change” value is -0.231.

Turning to RRIRERPPRLPRPRPRPHESPRP, the “shrunken log2 fold change” value is 0.0153.

Consider RRIRNRPPRLPRPRPRPDDMPRP, for which the “shrunken log2 fold change” value was -0.107.

RRIRGRPPRLPRPRPRPTEYPRP: the “shrunken log2 fold change” value is -0.0607.

In the case of RRIRERPPRLPRPRPRPGFMPRP, the “shrunken log2 fold change” value was -0.136.

On to RRIRQRPPRLPRPRPRPVGFPRP, for which the “shrunken log2 fold change” value worked out at 0.00249.

RRIRWRPPRLPRPRPRPNVGPRP: the “shrunken log2 fold change” value was -0.129.

As to RRIRMRPPRLPRPRPRPFIGPRP, the “shrunken log2 fold change” value was -0.0122.

Regarding RRIRARPPRLPRPRPRPPGRPRP, the “shrunken log2 fold change” value worked out at 0.742.

Take RRIRGRPPRLPRPRPRPYPEPRP: the “shrunken log2 fold change” value turned out to be 0.0556.

In the case of RRIRERPPRLPRPRPRPCYPPRP, the “shrunken log2 fold change” value is -0.498.

On to RRIRKRPPRLPRPRPRPEPSPRP, for which the “shrunken log2 fold change” value was determined as 0.956.

With RRIRIRPPRLPRPRPRPSQMPRP, the “shrunken log2 fold change” value is -0.0716.

Take RRIRGRPPRLPRPRPRPVEAPRP: the “shrunken log2 fold change” value was 0.997.

Take RRIRSRPPRLPRPRPRPSRKPRP: the “shrunken log2 fold change” value was -0.0434.

Turning to RRIRLRPPRLPRPRPRPKDYPRP, the “shrunken log2 fold change” value was -0.0534.

As to RRIRIRPPRLPRPRPRPWLLPRP, the “shrunken log2 fold change” value is -0.0948.

RRIRKRPPRLPRPRPRPVNYPRP: the “shrunken log2 fold change” value was -0.0716.

Take RRIRERPPRLPRPRPRPTTAPRP: the “shrunken log2 fold change” value stood at 0.0732.

Take RRIRYRPPRLPRPRPRPCWIPRP: the “shrunken log2 fold change” value was -0.01.

With RRIRFRPPRLPRPRPRPDSDPRP, the “shrunken log2 fold change” value is -0.0137.

For the sequence RRIRHRPPRLPRPRPRPNPIPRP, the “shrunken log2 fold change” value was -0.023.

On to RRIRVRPPRLPRPRPRPRYCPRP, for which the “shrunken log2 fold change” value is -0.144.

Take RRIRPRPPRLPRPRPRPDRIPRP: the “shrunken log2 fold change” value was -0.15.

RRIRARPPRLPRPRPRPCKQPRP: the “shrunken log2 fold change” value is -0.0572.

For the sequence RRIRERPPRLPRPRPRPSNWPRP, the “shrunken log2 fold change” value was -0.296.

As for RRIRLRPPRLPRPRPRPRLNPRP, the “shrunken log2 fold change” value is -0.0854.

For the sequence RRIRGRPPRLPRPRPRPIGTPRP, the “shrunken log2 fold change” value amounted to 0.334.

Take RRIRYRPPRLPRPRPRPSLIPRP: the “shrunken log2 fold change” value is -1.15.

On to RRIRQRPPRLPRPRPRPCDMPRP, for which the “shrunken log2 fold change” value is -0.129.

Turning to RRIRSRPPRLPRPRPRPDVCPRP, the “shrunken log2 fold change” value amounted to 0.0421.
